Results published in patent US20210214435A1 (MorphoSys, published 2021).

T1: human GPVI (full-length) expressed on stably transfected rat basophilic RBL-2H3 cells (human, UniProt Q9HCN6 21-339)
T1 sequence (looked up): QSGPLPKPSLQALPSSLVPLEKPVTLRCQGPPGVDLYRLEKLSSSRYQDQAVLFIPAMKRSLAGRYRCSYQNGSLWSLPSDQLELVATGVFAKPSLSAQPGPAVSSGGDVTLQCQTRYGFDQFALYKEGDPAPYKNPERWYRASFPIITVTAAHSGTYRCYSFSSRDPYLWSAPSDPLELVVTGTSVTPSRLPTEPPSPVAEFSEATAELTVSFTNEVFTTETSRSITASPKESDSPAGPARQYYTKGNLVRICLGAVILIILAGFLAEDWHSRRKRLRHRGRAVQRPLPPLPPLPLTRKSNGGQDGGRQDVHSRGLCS

T2: mouse GPVI (full-length) expressed on stably transfected CHO cells (mouse, UniProt P0C191 22-313)
T2 sequence: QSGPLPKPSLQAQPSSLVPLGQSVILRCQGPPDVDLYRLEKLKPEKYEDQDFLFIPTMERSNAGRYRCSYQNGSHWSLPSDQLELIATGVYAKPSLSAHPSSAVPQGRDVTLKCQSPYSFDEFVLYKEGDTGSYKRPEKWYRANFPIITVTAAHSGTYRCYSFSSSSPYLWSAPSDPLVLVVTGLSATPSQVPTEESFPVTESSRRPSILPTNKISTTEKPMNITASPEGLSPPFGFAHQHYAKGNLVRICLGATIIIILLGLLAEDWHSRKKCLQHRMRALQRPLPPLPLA

T3: mouse GPVI on the cell surface of mouse platelets (mouse, UniProt P0C191 22-313)
T3 construct: whole, on cells; also called GPVI on murine platelets
T3 sequence (looked up): T2 sequence

B1: Fab #2 comprising a modified heavy chain constant region (Fab, V domains shown)
VH: QVQLVESGGGLVKPGGSLRLSCAASGFSFSDHYMSWIRQAPGKGLEWVSSVGSEGKFIDYAASVKGRFTISRDNAKNSLYLQMNSLRAEDTAVYYCARHYREFRWHYYYFDYWGQGTLVTVSS
VL: QSVLTQPPSVSGAPGQRVTISCTGSSSNIGAGYDVHWYQQLPGTAPKLLIYGNSNRPSGVPDRFSGSKSGTSASLAITGLQAEDEADYYCQSHDLGAHVWVFGGGTKLTVLG
notes: Human Fab from the Ylanthia library; produced in HKB11 cells; also called Fab #2 mod; HC
B2: Fab #3 comprising a modified heavy chain constant region (Fab, V domains shown)
VH: QVQLVESGGGLVKPGGSLRLSCAASGFSFGDYYVSWIRQAPGKGLEWVSAIGGSGSAVQYAESVKGRFTISRDNAKNSLYLQMNSLRAEDTAVYYCARHYREFRWHYYYFDYWGQGTLVTVSS
VL: B1 VL
notes: Human Fab from the Ylanthia library; produced in HKB11 cells; also called Fab #3 mod; HC
B3: Reference Control Antibody RefFab #1 (humanized GPVI antibody of WO2011073954A2, SANOFI) (Fab, V domains shown)
VH: EVQLLESGPGLVAPSGSLSITCTVSGFSLTGYGVNWVRQPPGKGLEWLGMIWGDGSTDYQSTLKSRLSISKDNSKSQVFLKMNSLRTDDTARYYCARDLPMDYWGLGTSVTVSS
VL: DIQMTQSPSSLSASVGGRVTITCKASQDINKYIAWYQHKPGKGPSLLIHYTSTLQPGVPSRFSGSGSGRDYSFSISNLQPEDIATYYCLQYANLLTFGGGTKLEIKR
notes: Cloned into mammalian Fab expression vectors; a glycine-serine linker (G4S)2 was added to the C-terminus of the Fab heavy chain
B4: Fab #4 comprising a modified heavy chain constant region (Fab, V domains shown)
VH: QVQLVQSGAEVKKPGASVKVSCKASGGAFTSSYMHWVRQAPGQGLEWMGIIEPTGASTLYAQRFQGRVTMTRDTSTSTVYMELSSLRSEDTAVYYCARTGIALPLGFDLWGQGTLVTVSS
VL: QSVLTQPPSVSAAPGQKVTISCSGSSSNIGNNYVSWYQQLPGTAPKLLIYDNNKRPSGIPDRFSGSKSGTSATLGITGLQTEDEADYYCAAWSTRFRWVFGGGTKLTVLG
notes: Human Fab from the Ylanthia library; produced in HKB11 cells; also called Fab #4 mod; HC
B5: Fab #1 comprising a modified heavy chain constant region (Fab, V domains shown)
VH: QVQLVQSGAEVKKPGASVKVSCKASGYTFTSHYMHWVRQAPGQGLEWMGLIEPSEGETEYAQRFQGRVTMTRDTSTSTVYMELSSLRSEDTAVYYCARDSSRSYPLGFDIWGQGTLVTVSS
VL: QSVLTQPPSVSAAPGQKVTISCSGSSSNIGNNYVSWYQQLPGTAPKLLIYDNNKRPSGIPDRFSGSKSGTSATLGITGLQTEDEADYYCAAWDFRSSRWVFGGGTKLTVLG
notes: Human Fab from the Ylanthia library; produced in HKB11 cells; also called Fab #1 mod; HC

How the values were obtained:
[1] = target: T4, cynomolgus monkey GPVI extracellular domain fused at its C-terminus to human IgG1 Fc (GPVI-Fc) (cynomolgus monkey; human); assay: Solution equilibrium titration (SET), Fab with GPVI-Fc
T4 construct: also called cyGPVI-2; cyGPVI
T4 sequence (chain, as listed by the source limits assumed): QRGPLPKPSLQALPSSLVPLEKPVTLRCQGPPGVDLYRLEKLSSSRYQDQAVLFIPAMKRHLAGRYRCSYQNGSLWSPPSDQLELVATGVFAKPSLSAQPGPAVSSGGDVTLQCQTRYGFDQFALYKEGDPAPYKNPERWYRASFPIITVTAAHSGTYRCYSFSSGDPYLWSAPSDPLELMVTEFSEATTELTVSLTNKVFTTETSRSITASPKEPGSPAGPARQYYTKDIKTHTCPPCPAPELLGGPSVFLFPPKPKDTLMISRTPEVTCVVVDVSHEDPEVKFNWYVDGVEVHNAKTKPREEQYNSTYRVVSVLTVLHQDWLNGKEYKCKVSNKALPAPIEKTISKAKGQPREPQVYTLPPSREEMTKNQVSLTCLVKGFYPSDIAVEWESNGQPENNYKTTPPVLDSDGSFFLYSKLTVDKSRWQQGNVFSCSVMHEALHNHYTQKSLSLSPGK
Method: (§1) Affinity determination in solution was basically performed as described in the literature (Friguet et al. 1985). In order to improve the sensitivity and accuracy of the SET method, it was transferred from classical ELISA to ECL-based technology (Haenel et al. 2005).
(§2) 1 mg/mL goat-anti-human (Fab)2 fragment specific antibodies (Dianova) were labeled with MSD Sulfo TAG™ NHS-Ester (Meso Scale Discovery | Gaithersburg | Md. | USA) according to the manufacturer's instructions. The experiments were carried out in polypropylene microtiter plates and PBS (GIBCO 14190 | pH 7.0-7.2) containing 0.5% BSA and 0.02% Tween20 as assay buffer. Serial dilutions of unlabeled human GPVI-Fc (SEQ ID NO: 4), cynomolgus monkey GPVI-Fc (SEQ ID NO: 7), and mouse GPVI-Fc (SEQ ID NO: 8) (as prepared in Example 1) were prepared, starting with a concentration at least 10 times higher than the expected KD. Wells without antigen were used to determine Bmax values; wells containing only assay buffer were used to determine background. After addition of appropriate amount of binder (antibody concentration similar to or below the expected KD, 60 μL final volume), the mixture was incubated over night at RT. MSD plates were coated with antigen or biotinylated antigen on standard and streptavidin plates, respectively (30 μL per well). After washing the plate with PBS with 0.05% Tween 20, the equilibrated samples were transferred to the plates and incubated for 20 min. Following incubation, 30 μL per well of the MSD-Sulfo-tag labeled detection antibody (anti-human (Fab)2 | final dilution typically 1:2,000) was added to the washed MSD plate and incubated for 30 min at RT on an Eppendorf shaker (700 rpm). After washing the MSD plate and adding 30 μL/well MSD Read Buffer T with surfactant, electrochemiluminescence signals were detected using a Sector Imager 6000 (Meso Scale Discovery | Gaithersburg | Md. | USA). The data was evaluated with XLfit (IDBS) software applying customized fitting models. For KD determination of Fabs the fit model according to (Haenel et al. 2005), modified according to (Abraham et al.) was used.

[2] = target: T5, mouse GPVI extracellular domain fused at its C-terminus to human IgG1 Fc (GPVI-Fc) (mouse; human); assay: as above
T5 construct: also called mGPVI; mouse GPVI-Fc
Method: as §1, §2
Target sequence in this assay (chain, as listed by the source limits assumed): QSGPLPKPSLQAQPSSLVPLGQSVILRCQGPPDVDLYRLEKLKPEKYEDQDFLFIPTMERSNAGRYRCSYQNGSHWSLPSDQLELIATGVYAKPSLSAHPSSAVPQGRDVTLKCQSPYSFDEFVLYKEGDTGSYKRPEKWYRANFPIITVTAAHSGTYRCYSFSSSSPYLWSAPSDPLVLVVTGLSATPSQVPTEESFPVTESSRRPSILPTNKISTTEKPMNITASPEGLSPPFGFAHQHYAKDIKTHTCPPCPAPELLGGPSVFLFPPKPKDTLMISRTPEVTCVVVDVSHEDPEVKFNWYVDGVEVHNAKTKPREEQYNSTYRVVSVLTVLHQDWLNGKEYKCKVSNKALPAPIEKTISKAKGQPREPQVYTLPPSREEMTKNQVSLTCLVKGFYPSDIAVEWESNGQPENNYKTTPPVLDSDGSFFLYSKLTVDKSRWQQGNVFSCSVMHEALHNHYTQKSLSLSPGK

[3] = target: T6, human GPVI-1A extracellular domain fused at its C-terminus to human IgG1 Fc (GPVI-Fc) (human); assay: as above
T6 construct: also called hGPVI-1a; hGPVI
T6 sequence (chain, as listed by the source limits assumed): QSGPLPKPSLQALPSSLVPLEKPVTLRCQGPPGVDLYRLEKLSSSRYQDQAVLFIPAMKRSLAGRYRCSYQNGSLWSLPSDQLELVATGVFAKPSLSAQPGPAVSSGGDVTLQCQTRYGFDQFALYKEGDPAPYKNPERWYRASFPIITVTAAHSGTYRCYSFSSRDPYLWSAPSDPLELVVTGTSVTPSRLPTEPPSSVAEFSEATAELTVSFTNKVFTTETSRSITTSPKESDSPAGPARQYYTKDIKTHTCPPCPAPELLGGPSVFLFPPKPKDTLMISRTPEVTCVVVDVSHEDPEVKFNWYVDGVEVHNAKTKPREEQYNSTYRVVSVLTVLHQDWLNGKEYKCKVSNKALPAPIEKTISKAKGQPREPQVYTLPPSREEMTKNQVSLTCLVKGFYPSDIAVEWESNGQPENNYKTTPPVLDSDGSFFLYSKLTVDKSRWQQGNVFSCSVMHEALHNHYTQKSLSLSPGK
Method: as §1, §2

[4] = target: T1, human GPVI (full-length) expressed on …; assay: cell-based or functional assay
[5] = target: T2, mouse GPVI (full-length) expressed on …; assay: Cell ELISA (MSD) on CHO cells expressing mouse GPVI
[6] = target: T5, mouse GPVI extracellular domain fused …; assay: ELISA on coated mouse GPVI-Fc
[7] = target: T3, mouse GPVI on the cell surface of mouse …; assay: FACS on mouse platelets
[8] = target: T7, rat GPVI extracellular domain fused at its C-terminus to human IgG1 Fc (GPVI-Fc) (rat; human); assay: ELISA on coated rat GPVI-Fc
T7 construct: also called rGPVI
T7 sequence (chain, as listed by the source limits assumed): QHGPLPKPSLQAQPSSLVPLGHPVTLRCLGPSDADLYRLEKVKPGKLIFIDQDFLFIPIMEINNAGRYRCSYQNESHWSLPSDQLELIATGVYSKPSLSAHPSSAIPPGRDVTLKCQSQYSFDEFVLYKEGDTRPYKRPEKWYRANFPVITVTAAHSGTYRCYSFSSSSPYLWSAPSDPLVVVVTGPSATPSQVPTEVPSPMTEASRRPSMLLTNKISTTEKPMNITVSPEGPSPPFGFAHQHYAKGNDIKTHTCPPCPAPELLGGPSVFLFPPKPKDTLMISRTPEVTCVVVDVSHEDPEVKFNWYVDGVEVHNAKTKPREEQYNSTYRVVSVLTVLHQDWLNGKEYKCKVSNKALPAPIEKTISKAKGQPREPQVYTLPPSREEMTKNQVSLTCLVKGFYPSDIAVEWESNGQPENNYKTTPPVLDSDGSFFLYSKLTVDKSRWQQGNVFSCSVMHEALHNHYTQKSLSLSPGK

Binder | Kd [1] [nM] | Kd [2] [nM] | Kd [3] [nM] | Cell adhesion assay IC50 [nM], coated CRP-XL [4] [nM] | Cell adhesion assay IC50 [nM], coated VitroCol [4] [nM] | Cell adhesion assay Max. inhibition at 200 nM Fab [%], coated CRP-XL [4] [%] | Cell adhesion assay Max. inhibition at 200 nM Fab [%], coated VitroCol [4] [%] | binding result [5] | binding result [6] | binding result [7] | binding result [8]
B1 | 0.024 | 7.1 | 0.027 | 1.59 | 0.89 | 100 | 93 | – | – | – | –
B2 | 0.068 | 0.6 | 0.062 | 1.81 | 0.84 | 100 | 91 | – | – | – | –
B3 | 0.036 | – | 0.054 | 2.69 | 1.17 | 100 | 92 | no binding | no binding | no binding | no binding
B4 | 0.017 | 0.29 | 0.022 | – | 0.57 | – | 59 | – | – | – | –
B5 | 0.075 | 28 | 0.068 | – | 0.58 | – | 55 | – | – | – | –
